Experimental data as given in article PMC7477632, “Aptamer-based surface-enhanced resonance Raman scattering assay on a paper fluidic platform for detection of cardiac troponin I”.

Tests used:
[1] = target: T1, cardiac troponin I (cTnI) (UniProt P19429 2-210); experiment: sandwich SERRS lateral-flow assay; capture aptamer on test line; N2 on AuNP as detector; assay LOD 0.016 ng/ml; running buffer PBS with 0.25% Tween; sample pad pretreated with 0.05 M Tris pH 7.6, 0.15 M NaCl, 0.25% Triton X-100; assay temperature not stated; details: protein: commercial
[2] = target: T1, cardiac troponin I (cTnI); experiment: sandwich SERRS lateral-flow assay; detector aptamer on AuNP; N1 on test line as capture; assay LOD 0.016 ng/ml; running buffer PBS with 0.25% Tween; sample pad pretreated with 0.05 M Tris pH 7.6, 0.15 M NaCl, 0.25% Triton X-100; assay temperature not stated; details: protein: commercial

T1 sequence (P19429 2-210): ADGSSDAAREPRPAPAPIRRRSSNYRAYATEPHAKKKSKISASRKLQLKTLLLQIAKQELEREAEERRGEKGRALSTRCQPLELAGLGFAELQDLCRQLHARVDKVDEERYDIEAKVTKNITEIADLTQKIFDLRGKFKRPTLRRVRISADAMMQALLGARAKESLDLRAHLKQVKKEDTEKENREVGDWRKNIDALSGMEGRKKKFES

TTTTTTCGTGCAGTACGCCAACCTTTCTCATGCGCTGCCCCTCTTA (ssDNA, 5'-biotin) [primary cTnI aptamer]
binding result [1]: binds

CGCATGCCAAACGTTGCCTCATAGTTCCCTCCCCGTGTCC (ssDNA, 5'-amine-spacer 18-spacer 18) [secondary cTnI aptamer]
binding result [2]: binds
